Consider one molecule from US7230094B2, “Neutral sphingomyelinase antisense ribozyme and uses thereof” (priority 2001, dated 2007).

The test system of the data set is N-SMase. The data set is described as follows: N-SMase activity gel analysis of partially purified preparations. As to conditions: CC mutant cells compared to control cells, FIG. 2. The format is cell-based, human. On the procedure: FIG. 2 depicts N-SMase activity in mutant and WT cells, as determined using gel analysis. Partially purified preparations of the MG-63 (WT) cell line and the mutant cell line CC were subjected to 7.5% polyacrylamide gel electrophoresis at 4° C. employing sodium lauryl sarcosine as the detergent. The gel was calibrated with pre-stained protein molecular weight standards (phosphorylase B, bovine serum albumin (BSA), and ovalbumin). Gel slices were excised and subjected to an N-SMase assay employing […] as the substrate.
N-SMase activity in mutant and WT cells (subjected to detergent extraction as described above), was determined using gel analysis. Partially purified preparations of the MG-63 (WT) cell line and the mutant cell line CC were subjected to 7.5% polyacrylamide gel electrophoresis at 4° C. employing sodium lauryl sarcosine as the detergent. The gel was calibrated with pre-stained protein molecular weight standards (phosphorylase B, bovine serum albumin (BSA), and ovalbumin; Bio-Rad). Gel slices were excised, transferred to glass tubes, and subjected to an N-SMase assay at pH 7.4 employing […] as the substrate.

B1: N-SMase ribozyme: U1 snRNA-derived hammerhead antisense ribozyme targeting N-SMase mRNA, expressed from vector pNSMRz; stably transfected MG63 clones CC and C-B (nucleic acid, listed as Homo sapiens)
chain: AUACUUACCUGGCAGGGGAGAUACCAUGAUCACGAAGGUGGUUUUCCCAGGGCGAGGCUUAUCCAUUGGCCUCCGGAUGUGCUGACCCCUGCGAUUUCCCCAAAUGUGGGAAACUCGACUGCAGAAUAUGUCAUCAUAUUGCCUGAUGAGUCCGUGAGGACGAAACCUCUUCACAUGAAAAAGUGGGGCUGCGUUCGCGCUUCCCCG
B1: the “Level of N-SMase activity in gel slices” value was “greatly reduced”.
